# Assay results taken from patent publication US20160333101A1 (GENOR BIOPHARMA, published 2016).
# Numbering of substitutions follows the chain as printed.
# T1: RANK on RAW264.7 cells (mouse (RAW264.7 cells), UniProt O35305 31-625)
# T1 sequence (looked up): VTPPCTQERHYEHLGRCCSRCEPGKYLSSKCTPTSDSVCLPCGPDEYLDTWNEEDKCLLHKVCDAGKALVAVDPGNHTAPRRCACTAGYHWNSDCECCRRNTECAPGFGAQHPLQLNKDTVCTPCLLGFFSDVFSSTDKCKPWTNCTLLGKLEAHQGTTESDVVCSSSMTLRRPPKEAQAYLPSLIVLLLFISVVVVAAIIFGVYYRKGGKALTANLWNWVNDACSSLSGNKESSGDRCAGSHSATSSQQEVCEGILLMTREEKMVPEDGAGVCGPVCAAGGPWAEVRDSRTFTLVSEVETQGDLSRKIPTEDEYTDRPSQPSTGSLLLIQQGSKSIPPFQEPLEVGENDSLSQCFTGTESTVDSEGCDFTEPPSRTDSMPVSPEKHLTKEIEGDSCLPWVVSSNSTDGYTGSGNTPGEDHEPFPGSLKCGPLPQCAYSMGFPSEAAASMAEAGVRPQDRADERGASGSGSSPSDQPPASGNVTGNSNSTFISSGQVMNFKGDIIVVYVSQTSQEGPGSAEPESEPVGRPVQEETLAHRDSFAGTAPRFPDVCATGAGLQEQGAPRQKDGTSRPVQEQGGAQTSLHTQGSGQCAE
# B1: RANK-Fc (Fc fusion)
# chain: IAPPCTSEKHYEHLGRCCNKCEPGKYMSSKCTTTSDSVCLPCGPDEYLDSWNEEDKCLLHKVCDTGKALVAVVAGNSTTPRRCACTAGYHWSQDCECCRRNTECAPGLGAQHPLQLNKDTVCKPCLAGYFSDAFSSTDKCRPWTNCTFLGKRVEHHGTEKSDAVCSSSLPARKPPNEPHVYLP
# notes: Bought from R & D Systems; also called receptor RANK-Fc; not shown: Human IgG Fc part and any linker of the bought R & D Systems RANK-Fc
# B2: recombinant human RANKL (ligand)
# chain: HHHHHHHHHHGSQHIRAEKAMVDGSWLDLAKRSKLEAQPFAHLTINATDIPSGSHKVSLSSWYHDRGWAKISNMTFSNGKLIVNQDGFYYLYANICFRHHETSGDLATEYLQLMVYVTKTSIKIPSSHTLMKGGSTKYWSGNSEFHFYSINVGGFFKLRSGEEISIEVSNPSLLDPDQDATYFGAFKVRDID
# B3: commercial hRANKL standard (ligand, human, UniProt O14788 140-317, looked up)
# chain: IRAEKAMVDGSWLDLAKRSKLEAQPFAHLTINATDIPSGSHKVSLSSWYHDRGWAKISNMTFSNGKLIVNQDGFYYLYANICFRHHETSGDLATEYLQLMVYVTKTSIKIPSSHTLMKGGSTKYWSGNSEFHFYSINVGGFFKLRSGEEISIEVSNPSLLDPDQDATYFGAFKVRDID
# B4: pFL249-H16u (scFv)
# scFv: QVQLVQSGAELKKPGASVKLSCKASGYTFTTYWLQWVRQAPGQGLEWMGAIYPGPGNTKYTQKFKDRFTITADTSKSTAYMQLNSLKSEDSAVYYCARRGSRRGIAYWGQGTLVTVSAASSGGGGSGGGGSGGGGSSNIVLTQSPASLAVSLGQRATISCRASESVDSYGRSFMHWYQQRPGQPPTLLIYLASNLESGVPVRFSGSGSRTDFTLTIDPVEADDAATYYCQQDNEDPYTFGGGTKLEIK
# notes: scFv in IPTG-induced E. coli supernatant, screened by ELISA; also called H16u scFv clone of the VH library; not shown: c-myc tag and his tag of vector pFL249
# B5: pFL249-H114 (scFv)
# scFv: B4 scFv with K12V, K13Q, A40T, F68V, K76T, K87R
# notes: scFv in IPTG-induced E. coli supernatant, screened by ELISA; also called H114 scFv clone of the VH library; not shown: c-myc tag and his tag of vector pFL249
# B6: pFL249-H16 (scFv)
# scFv: B4 scFv with T74K
# notes: scFv in IPTG-induced E. coli supernatant, screened by ELISA; also called H16 scFv clone of the VH library; not shown: c-myc tag and his tag of vector pFL249
# B7: G8 (antibody, human IgG2, kappa, V domains shown)
# VH: QVQLVQSGAELVQPGASVKLSCKASGYTFTTYWLQWVRQTPGQGLEWMGAIYPGPGNTKYTQKFKDRVTITADTSTSTAYMQLNSLRSEDSAVYYCARRGSRRGIAYWGQGTLVTVSA
# VL: NIVLTQSPASLSVSLGQRATISCRASESVDSYGRSFMHWYQQRPGQAPKLLIYLASNLESGVPARFSGSGSRTDFTLTISSVEAEDEATYYCQQDNEDPYTFGGGTKLEIKG
# B8: G14 (antibody, human IgG2, kappa, V domains shown)
# VH: B7 VH with L11V, V12K, Q13K, L20V, T40A, T74E, Q82E, N84S, S91T
# VL: DIVMTQSPDSLAVSLGERATINCRASESVDSYGRSFMHWYQQKPGQAPRLLIYLASNLESGVPSRFSGSGSGTDFTLTINSLEAEDAATYYCQQDNEDPYTFGGGTKLEIKG
# Legend:
# recombinant human RANKL [1] = molecular target: B2; assay: ELISA, coated recombinant human RANKL, RANK-Fc titrated, anti-human IgG-Fc
# Procedure: (§1) The samples are diluted to 1 μg/ml, was added 100 and incubated overnight at 4° C. RANK-Fc gradient diluted from 10 μg/ml is added, 1:20,000 dilution of secondary antibody (goat anti-human IgG-Fc) is added, the sample is incubated for 1 hour at room temperature, is colored using TMB chromogenic color system. Absorbance value to each well of the 96-well plate is measured on the multifunction microplate reader with a measurement wavelength of 450 nm, a reference wavelength of 630 nm, absorbance value to each well (OD)=OD450 nm-OD630 nm.
# [2] = molecular target: B3; assay: ELISA, coated commercial hRANKL standard, RANK-Fc titrated, anti-human IgG-Fc
# Procedure: as §1
# RANK on RAW264.7 cells = molecular target: T1, RANK on RAW264.7 cells; assay: cell-based or functional assay
# recombinant human RANKL [3] = molecular target: B2; assay: ELISA, scFv supernatant on coated hRANKL, anti-c-myc-HRP; threshold of the clones sent for sequencing
# Procedure: The plates are washed three times with PBST (containing 0.05% Tween 20). The plates are closed with blocking solution (PBS solution containing 2% (WN) of BSA) for 1˜1.5 hours at room temperature. […] The closed microtiter plate is incubated for 2 hours at room temperature, washed three times with PBST. […] After the microtiter plate is washed six times with PBST, TMB substrate (purchased from Cell Signaling Technology, Cat. NO.7004) is added, and the samples are colored at room temperature for 10 minutes, 50 μl 2 M HCl is added in each well to terminate the color, and OD450 nm reading is detected using the M5 equipment.
# If OD450>0.4, it is considered as a positive coloration.
# recombinant human RANKL [4] = molecular target: B2; assay: cell-based or functional assay
# recombinant human RANKL [5] = molecular target: B2; assay: cell-based or functional assay; remark: listed apart in the source
binder,measurement,setting,value
B1,EC50,recombinant human RANKL [1],0.0109 mg/L
same,EC50,[2],0.0056 mg/L
B2,"EC50 of inducing RAW264.7 cells to be differentiated into osteoclasts (tartrate-resistant acid phosphatase, pNPP)",RANK on RAW264.7 cells,113 ng/ml
B3,"EC50 of inducing RAW264.7 cells to be differentiated into osteoclasts (tartrate-resistant acid phosphatase, pNPP)",RANK on RAW264.7 cells,35.7 ng/ml
B4,OD450,recombinant human RANKL [3],1.2
B5,OD450,recombinant human RANKL [3],1.2
B6,OD450,recombinant human RANKL [3],1.2
B7,"IC50 (ng/ml) in RAW264.7 cells, osteoclast differentiation induced by RANKL",recombinant human RANKL [4],~573 ng/mL
same,IC50 for inhibiting hRANKL induced RAW264.7 cell differentiation,recombinant human RANKL [5],0.329 mg/L
B8,"IC50 (ng/ml) in RAW264.7 cells, osteoclast differentiation induced by RANKL",recombinant human RANKL [4],~517 ng/mL
same,IC50 for inhibiting hRANKL induced RAW264.7 cell differentiation,recombinant human RANKL [5],0.247 mg/L
